Kd data for 1 molecule are collected here from PMC7481795 (2020).

This test concerns the target acid alpha-glucosidase (GAA phosphodiester) (Homo sapiens, UniProt P10253). The test can be described thus: SPR. On the technique in general: Surface plasmon resonance follows binding to a sensor surface in real time, without labels.

B1: CI-MPR domains 1-5 1-726 (protein)
chain: MGAAAGRSPHLGPAPARRPQRSLLLLQLLLLVAAPGSTQAQAAPFPELCSYTWEAVDTKNNVLYKINICGSVDIVQCGPSSAVCMHDLKTRTYHSVGDSVLRSATRSLLEFNTTVSCDQQGTNHRVQSSIAFLCGKTLGTPEFVTATECVHYFEWRTTAACKKDIFKANKEVPCYVFDEELRKHDLNPLIKLSGAYLVDDSDPDTSLFINVCRDIDTLRDPGSQLRACPPGTAACLVRGHQAFDVGQPRDGLKLVRKDRLVLSYVREEAGKLDFCDGHSPAVTITFVCPSERREGTIPKLTAKSNCRYEIEWITEYACHRDYLESKTCSLSGEQQDVSIDLTPLAQSGGSSYISDGKEYLFYLNVCGETEIQFCNKKQAAVCQVKKSDTSQVKAAGRYHNQTLRYSDGDLTLIYFGGDECSSGFQRMSVINFECNKTAGNDGKGTPVFTGEVDCTYFFTWDTEYACVKEKEDLLCGATDGKKRYDLSALVRHAEPEQNWEAVDGSQTETEKKHFFINICHRVLQEGKARGCPEDAAVCAVDKNGSKNLGKFISSPMKEKGNIQLSYSDGDDCGHGKKIKTNITLVCKPGDLESAPVLRTSGEGGCFYEFEWHTAAACVLSKTEGENCTVFDSQAGFSFDLSPLTKKNGAYKVETKKYDFYINVCGPVSVSPCQPDSGACQVAKSDEKTWNLGLSNAKLSYYDGMIQLNYRGGTPYNNERHTPRATL
modifications: GAA N-glycans modified to contain only phosphodiesters
As a reminder, the Kd is the free concentration of one partner at which half of the binding sites on the other are occupied at equilibrium, for simple one-to-one binding. The low end stands for tighter binding, the high end for weaker binding. In the case of B1, the Kd was around 60 nM.
